Reference: patent US6495137
Where “and” joins values, the source holds several entries; their conditions need not be identical. Equal entries are not always repeated.

Tests used:
[1] = target: bovine submaxillary mucin (BSM), TAG-72-positive (bovine); experiment: radiolabeled antibody bound to BSM beads
[2] = target: bovine submaxillary mucin (BSM), TAG-72-positive (bovine); experiment: competition RIA, 125I-labeled nCC49 as competitor, BSM as target antigen; design: unit not given here
[3] = target: bovine submaxillary mucin (BSM), TAG-72-positive (bovine); experiment: relative affinity constant, competition RIA on BSM, Scatchard analysis

B1: HuCC49* humanized CC49 monoclonal antibody (antibody, V domains shown)
VH: QVQLVQSGAEVVKPGASVKISCKASGYTFTDHAIHWVKQNPGQRLEWIGYFSPGNDDFKYNERFKGKATLTADTSASTAYVELSSLRSEDTAVYFCTRSLNMAYWGQGTLVTVSS
VL: DIVMSQSPDSLAVSLGERVTLNCKSSQSLLYSGNQKNYLAWYQQKPGQSPKLLIYWASARESGVPDRFSGSGSGTDFTLTISSVQAEDVAVYYCQQYYSYPLTFGAGTKLELK
percent bound [1]: > 85% and 85% | amount required for 50% competition [2]: 45 | Ka [3]: 6e+07 M⁻¹
